Source: article PMC6608618, “Structures of three ependymin-related proteins suggest their function as a hydrophobic molecule binder” (IUCrJ, 2019)

Experiments:
[1] = biological target: T1, human EPDR1 (Homo sapiens, UniProt Q9UM22); test: fluorescence increase titration (ex […] nm, em […] nm); assay type: binding
T1 construct: residues 38-224 without native signal peptide; N-terminal His8 tag, cleavage not mentioned; codon-optimised synthetic gene, pAcGP67A; secreted from Sf9 insect cells; homodimer in crystal; three intramolecular disulfides
T1 sequence (Q9UM22 38-224): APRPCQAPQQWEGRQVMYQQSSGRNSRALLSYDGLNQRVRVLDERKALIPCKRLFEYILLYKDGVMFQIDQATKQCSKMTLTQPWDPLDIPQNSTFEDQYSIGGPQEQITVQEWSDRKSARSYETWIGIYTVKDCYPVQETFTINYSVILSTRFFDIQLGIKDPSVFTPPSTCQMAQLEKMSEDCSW

[2] = biological target: the molecule itself; test: crystal structure; frog EPDR1 crystals, hanging drop 22 C, 15-20% PEG 8000, 0.2 M calcium acetate, 0.1 M sodium cacodylate pH 6.5; space group P6(5)22, one molecule in the asymmetric unit, dimer with a crystallographic symmetry mate
[3] = biological target: the molecule itself; test: crystal structure; human EPDR1 crystals, hanging drop 22 C, 15-20% PEG 3350 with 0.1 M citric acid pH 4.5 or 0.2 M NaCl, 0.1 M bis-Tris pH 5.5; space group P4(3), four molecules in the asymmetric unit; interfaces judged by PISA
[4] = biological target: the molecule itself; test: crystal structure; mouse EPDR1 crystals, hanging drop 22 C, 0.5-1.0 M lithium sulfate, 0.5-1.0 M ammonium sulfate, 0.1 M sodium citrate pH 5.6; space group P2(1), four molecules in the asymmetric unit

O=S(=O)(O)c1cccc2cccc(Nc3ccccc3)c12 [1,8-ANS, 1-anilinonaphthalene-8-sulfonic acid]
Kd [1]: ~14 µM

B1: frog EPDR1 (Xenopus tropicalis, residues 38-220, N-terminal His8 tag) (natural protein, UniProt F6VRB7 38-220, looked up)
chain: TPCEAPLQWEGRIVLYDHNTGKNTRATVTYDAILQRIRILEEKKSFVPCKRFFEYIFLYQEAVMFQIEQVTKICSKNTLTEPWDPYDIPENSTYEDQYYIGGPGDQIPVQEWSDRKPARKYETWVGVYTVKDCYPVQETYTKNDSMTTSTRFFDIKLGISDPSVFNPPSTCEAAQPLLMSGDC
modifications: glycosylation at the two predicted Asn sites only slightly perceivable, too disordered to be modeled
notes: frog (Xenopus tropicalis) EPDR1, NCBI XP_002939463, residues 38-220, without the native N-terminal signal peptide; Three intramolecular disulfide bonds; source: Sf9 insect cells (baculovirus, pAcGP67A, secreted), purified (Ni-NTA, size-exclusion chromatography)
stoichiometry N [2]: 2

B2: human EPDR1 (residues 38-224, N-terminal His8 tag) (natural protein, UniProt Q9UM22 38-224, looked up)
chain: T1 sequence (Q9UM22 38-224)
modifications: glycosylation at the two predicted Asn sites only slightly perceivable, too disordered to be modeled
notes: human EPDR1, UniProt Q9UM22, residues 38-224, without the native N-terminal signal peptide; Three intramolecular disulfide bonds (Cys42-Cys172, Cys88-Cys222, Cys113-Cys210); also called mammalian ependymin-related protein 1; MERP1; source: Sf9 insect cells (baculovirus, pAcGP67A, secreted), purified (Ni-NTA, size-exclusion chromatography)
stoichiometry N [3]: 2

B3: mouse EPDR1 (residues 38-224, N-terminal His8 tag) (natural protein, UniProt Q99M71 38-224, looked up)
chain: TPQPCQAPQQWEGRQVLYQQSSGHNNRALVSYDGLNQRVRVLDERKALIPCKRLFEYILLYKEGVMFQIEQATKQCAKIPLVESWDPLDIPQNSTFEDQYSIGGPQEQILVQEWSDRRTARSYETWIGVYTAKDCYPVQETFIRNYTVVMSTRFFDVQLGIKDPSVFTPPSTCQAAQPEKMSDGCSL
modifications: N-glycosylation at Asn130 (one NAG) and at Asn182 (two NAGs and one fucose)
notes: mouse (Mus musculus) EPDR1, UniProt Q99M71, residues 38-224, without the native N-terminal signal peptide; Three intramolecular disulfide bonds; also called MERP1; source: Sf9 insect cells (baculovirus, pAcGP67A, secreted), purified (Ni-NTA, size-exclusion chromatography)
stoichiometry N [4]: 2
